In a protein production outcome set (Wang et al. 2014):

assay: label from the status in PepcDB records
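Also: failed if final PepcDB status was selected cloned or expressed and not failed if soluble or beyond.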

Protein production, failed:
METSSSSPVKPRRKDKDEDKFRIGATLAFIVVIIGIGVPMWWRTTTVYRVNLPSTEILSLSKIPIKTAVQVAIYTQQTSRGQLLIAELQNAFSDNEIWSVEFKQLSPTPMTQEAHTPAALEKLLLENHVQSVGDFMFIEWPKLQEELLLTTERSALMRSDTPSNKIAQLLHAKILQTYRINQILSTDERMGAKSEAPQPAYDVIVSVLNPKPRLTHAKWNIAMAVKTYIEPWLAKVSGVSNYTVRSQWKYRVAIEADLKQVRDQSKLGRHYALQETALPHLLTSIAQNLSASTTDKPAINLVVYIPPCHIAPLHIYNSKDQRLTRNDVDAFISPPWGGFIIANPPEHVCLAAMSDQEAVPYHVSTTDNMQVMLDQLHKLLDISSELQMEGVKVVDIEQLEPRRWEYEAYLRRSAIRHISTASSTLQSLIKLLDQISYIVIDDEVGAAITNSYADILAAKAALLEHRLADASVLAKRAFVASERGFFDASLLAQLYFPDEQKYAIYIPLFLPIMVPVLSSFNMLRGVLQARRKEKQS
METYLEIETLIKRIFNSFRHEVEAVLDKRLSGSEYRVLSLISSGLTKTSDLAKTLDVSASHITAITDTLVEEKLITRHRSEVDRRIIELKLTSNAEEFVKEIDKKKKEMIVKRFAVFSEYEQAEFRKLLKKLADGSQSNK
MEVDTMETLIRLFVSILIICVLALMIKKSRCLDNEGVIGSSIMGFILLYFCGFKYLILLLSFFILGVLVSRVGLEKKKAKKMDETCRSLKNVLANGLIPILFAILAIFGFNWALIGYISSIAAATSDTFSSELGILSNEKPRLITTFEVVEKGTDGAITIFGTLAGVLGAFLIGLFGYLLFGDIKIVLCGTAGGIAGNLADSLVGALFERKGILNNEHVNLIATIVGGIIGVLIYCTL
MEVERKIVSLEALYIVYDADGTVAGELLYLLRKWLGKGHCAACDITHGPRKVKPEWTILQKTGWLGVPLFNIHRDEMEPKLRSAVSCALPCVAALVDNGDYVLLLQPEDLESCKGQVSKLQEKIVEALKDFGFQVNESFTSVVTSDLSDTCPSTLDREKEEDDAVVPF
MEVLKDFLLFYGGLFAITNPIGAVPVFIAVTRNLSPEKRKEIARKTSTTVMVTLLVFALVGEWIFKFFGASTDAFSIAGGIILFRMSLEMLSGKLSSVKISEEEEHISEEAVTLEEVAIIPLAIPLLSGPGAITTTMLYMAKSSTMIEKSIVLLVVVAIGITVWIILSAANRIHQKLGTIGIKVMTRMMGLILASMAVQMVINGVKGAFNI
MEVLLDVKERMSILKNFYDEVRVVDPINNIVFSDDFNLKINNKFNEKDCSLSNCYDVWGKKSMCSTCISKKAYLKNDTFIKLEYNKNHVFLVIASPIEFNENKYVVEILKDITNNGSIVDGSGEGNYLDLTMKKMGENLIKDYLTGVYNKRYIDQRFSKEAHRNLKESIPTTVIMTDIDSFKKVNDTYGHLVGDKILRDFAKVLNNNIRENSDWIGRYGGEEFIIVLNNTNLKNGVKVAEKLRKIIEKMSFDYGDLSLKITSSFGVCEVSEKEDPFDTIKNADEKLYMAKMTGRNKTVF
MEVMRGVRVIEGMNGGRFPYCNVVVVGDVVIDAGAGLEVMRKVNASLLVLSHLHPDHSSGAWLFKDVLAPAEGRITLDTLARRFVAPDLVESWKRFISAATGLREFECERYEEGVVVKEPEIVAVPVKGHTMDHHVFLIEQKVLFGADVDLTSFGPFYGNPEADPYLFEREMDKLLDIDFEIFVSAHSKPLEHHHHHH
MEVRWCATSDPEQHKCGNMSEAFREAGIQPSLLCVRGTSADHCVQLIAAQEADAITLDGGAIYEAGKEHGLKPVVGEVYDQEVGTSYYAVAVVRRSSHVTIDTLKGVKSCHTGINRTVGWNVPVGYLVESGRLSVMGCDVLKAVSDYFGGSCVPGAGETSYSESLCRLCRGDSSGEGVCDKSPLERYYDYSGAFRCLAEGAGDVAFVKHSTVLENTDGKTLPSWGQALLSQDFELLCRDGSRADVTEWRQCHLARVPAHAVVVRADTDGGLIFRLLNEGQRLFSHEGSSFQMFSSEAYGQKDLLFKDSTSELVPIATQTYEAWLGHEYLHAMKGLLCDPNRLPPYLRWCVLSTPEIQKCGDMAVAFRRQRLKPEIQCVSAKSPQHCMERIQAEQVDAVTLSGEDIYTAGKKYGLVPAAGEHYAPEDSSNSYYVVAVVRRDSSHAFTLDELRGKRSCHAGFGSPAGWDVPVGALIQRGFIRPKDCDVLTAVSEFFNASCVPVNNPKNYPSSLCALCVGDEQGRNKCVGNSQERYYGYRGAFRCLVENAGDVAFVRHTTVFDNTNGHNSEPWAAELRSEDYELLCPNGARAEVSQFAACNLAQIPPHAVMVRPDTNIFTVYGLLDKAQDLFGDDHNKNGFKMFDSSNYHGQDLLFKDATVRAVPVGEKTTYRGWLGLDYVAALEGMSSQQC
